# Source: the RNAGym collection of RNA variant scans (doi:10.7554/elife.80360)
# B1: Twister Ribozyme (parent)
# chain: AACACUGCCAAUGCCGGUCCCAAGCCCGGAUAAAAGUGGAGGGGGCGG
# Variants of: B1
# Experiment: self-cleavage, relative activity (ratio to wild type); higher = more cleavage; co-transcriptional
row,Variant,self-cleavage
1,AACACUGCCAAUGCCGGUCCCAAGCCCGGAUACAAGUCGAGGGGGCGG,0.918
2,AACACUGCCAAUGCCGGUCCCAAGCCCGGAUUACAGUGGAGGGGGCGG,0.231
3,AACACUGCCAAUGCCGGUCCCAAGCCCGGAUGAAAAUGGAGGGGGCGG,0.618
4,AACACUGCCAAUGCCGGUCCCAAGCCCGGAUACAAGUGGAGGGGGCCG,0.274
5,AACACUGCCAAUGCCGGUCCCAAGCCCGGAUACAAGUGGAGGGGGAGG,0.934
6,AACACUGCCAAUGCCGGUCCCAAGCCCGGAUACAAGUGGAGGGGGGGG,0.751
7,AACACUGCCAAUGCCGGUCCCAAGCCCGGAUACAAGUGGAGGGGGUGG,0.961
8,AACACUGCCAAUGCCGGUCCCAAGCCCGGAGAAAAGUGGAGGGGGCGA,0.992
9,AACACUGCCAAUGCCGGUCCCAAGCCCGGAGAAAAGUGGAGGGGGCGU,0.938
10,AACACUGCCAAUGCCGGUCCCAAGCCCGGAUCAAAGUUGAGGGGGCGG,0.723
11,AACACUGCCAAUGCCGGUCCCAAGCCCGGAUGACAGUGGAGGGGGCGG,0.137
12,AACACUGCCAAUGCCGGUCCCAAGCCCGGAUACAAUUGGAGGGGGCGG,0.122
13,AACACUGCCAAUGCCGGUCCCAAGCCCGGAUACAACUGGAGGGGGCGG,0.101
14,AACACUGCCAAUGCCGGUCCCAAGCCCGGAUGAAAGUCGAGGGGGCGG,0.892
15,AACACUGCCAAUGCCGGUCCCAAGCCCGGAUGAAAGUAGAGGGGGCGG,0.846
16,AACACUGCCAAUGCCGGUCCCAAGCCCGGAUAGCAGUGGAGGGGGCGG,0.108
17,AACACUGCCAAUGCCGGUCCCAAGCCCGGAUAGGAGUGGAGGGGGCGG,0.253
18,AACACUGCCAAUGCCGGUCCCAAGCCCGGAUAGUAGUGGAGGGGGCGG,0.461
19,AACACUGCCAAUGCCGGUCCCAAGCCCGGAUAGAAGUGGAGGGCGCGG,0.752
20,AACACUGCCAAUGCCGGUCCCAAGCCCGGAUAGAAGUGGAGGGUGCGG,0.86
21,AACACUGCCAAUGCCGGUCCCAAGCCCGGAUAGAAGUGGAGGGGGAGG,0.894
22,AACACUGCCAAUGCCGGUCCCAAGCCCGGAUAGAAGUGGAGGGGGUGG,0.851
23,AACACUGCCAAUGCCGGUCCCAAGCCCGGAUAGAACUGGAGGGGGCGG,0.303
24,AACACUGCCAAUGCCGGUCCCAAGCCCGGAUAGAAGUGGACGGGGCGG,0.197
25,AACACUGCCAAUGCCGGUCCCAAGCCCGGAUGAAAGCGGAGGGGGCGG,0.844
26,AACACUGCCAAUGCCGGUCCCAAGCCCGGAUGAAAGAGGAGGGGGCGG,0.752
27,AACACUGCCAAUGCCGGUCCCAAGCCCGGAUCAAAGUGGAGGGGGCCG,0.556

row,Variant,self-cleavage
1,AACACUGCCAAUGCCGGUCCCAAGCCCGGAUCAAAGUGGAGGGGGCAG,0.764
2,AACACUGCCAAUGCCGGUCCCAAGCCCGGAUCAAAGUGGAGGGGGCUG,0.783
3,AACACUGCCAAUGCCGGUCCCAAGCCCGGAUGAAAGUGGAGGGGGAGG,0.753
4,AACACUGCCAAUGCCGGUCCCAAGCCCGGAUGAAAGUGGAGGGGGGGG,0.854
5,AACACUGCCAAUGCCGGUCCCAAGCCCGGAUGAAAGUGGAGGGGGUGG,0.933
6,AACACUGCCAAUGCCGGUCCCAAGCCCGGAUACAAGUGGAGGGGGCGU,1.04
7,AACACUGCCAAUGCCGGUCCCAAGCCCGGAUCGAAGUGGAGGGGGCGG,0.945
8,AACACUGCCAAUGCCGGUCCCAAGCCCGGAUGAAAGUGGAGAGGGCGG,0.319
9,AACACUGCCAAUGCCGGUCCCAAGCCCGGAUGAAAGUGGAGUGGGCGG,0.357
10,AACACUGCCAAUGCCGGUCCCAAGCCCGGAUGAAAGUGGAGCGGGCGG,0.38
11,AACACUGCCAAUGCCGGUCCCAAGCCCGGAUCAAAGUGGAGUGGGCGG,0.266
12,AACACUGCCAAUGCCGGUCCCAAGCCCGGAUACAAGUGGAGGGUGCGG,0.97
13,AACACUGCCAAUGCCGGUCCCAAGCCCGGAUGAAAGUGGGGGGGGCGG,0.147
14,AACACUGCCAAUGCCGGUCCCAAGCCCGGAUCAAAGUGGAGGCGGCGG,0.153
15,AACACUGCCAAUGCCGGUCCCAAGCCCGGAUCAAAGUGGAGGAGGCGG,0.242
16,AACACUGCCAAUGCCGGUCCCAAGCCCGGAUCAAAGUGGCGGGGGCGG,0.159
17,AACACUGCCAAUGCCGGUCCCAAGCCCGGAUUAAAGUGGAGGCGGCGG,0.139
18,AACACUGCCAAUGCCGGUCCCAAGCCCGGAUACAAGUGAAGGGGGCGG,0.438
19,AACACUGCCAAUGCCGGUCCCAAGCCCGGAUUAAAGUGGAGCGGGCGG,0.437
20,AACACUGCCAAUGCCGGUCCCAAGCCCGGAUUAAAGUGGAGAGGGCGG,0.324
21,AACACUGCCAAUGCCGGUCCCAAGCCCGGAUAGACGUGGAGGGGGCGG,0.858
22,AACACUGCCAAUGCCGGUCCCAAGCCCGGAUACAAGUGGAGGGGGCGG,0.975
23,AACACUGCCAAUGCCGGUCCCAAGCCCGGAUAGAAGUGGAGGGGGCGG,0.96
24,AACACUGCCAAUGCCGGUCCCAAGCCCGGAUACCAGUGGAGGGGGCGG,0.383
25,AACACUGCCAAUGCCGGUCCCAAGCCCGGAUACGAGUGGAGGGGGCGG,0.82
26,AACACUGCCAAUGCCGGUCCCAAGCCCGGAUUAAAGUGGAAGGGGCGG,0.488
27,AACACUGCCAAUGCCGGUCCCAAGCCCGGAGAAAAGAGGAGGGGGCGG,0.818
